Test results as given in publication PMC2408616, “Modular Organization and Combinatorial Energetics of Proline–Tyrosine Nuclear Localization Signals” (PLoS Biology, 2008).
Where no end group is shown, it is not given here. MBP = not defined here

How the values were obtained:
[1] = target: T1, Kap104p (yeast (S. cerevisiae), UniProt P38217 1-918); assay: ITC; 90–350 μM MBP-NLS titrated into 9–35 μM Kap104p in the cell; 20 °C; 20 mM Tris pH 7.5, 100 mM NaCl, 2 mM β-mercaptoethanol, 10% glycerol; 35 injections of 8 μl; single-site model; conditions: both partners purified
T1 construct: Kap104p, yeast homolog of Kapβ2; gene a gift from J. Aitchison, subcloned into pGEX-Tev; also called yeast Karyopherin β2 homolog; source: E. coli Rosetta(DE3)pLysS, purified (glutathione sepharose, TEV cleavage, anion exchange, gel filtration)
T1 sequence (looked up): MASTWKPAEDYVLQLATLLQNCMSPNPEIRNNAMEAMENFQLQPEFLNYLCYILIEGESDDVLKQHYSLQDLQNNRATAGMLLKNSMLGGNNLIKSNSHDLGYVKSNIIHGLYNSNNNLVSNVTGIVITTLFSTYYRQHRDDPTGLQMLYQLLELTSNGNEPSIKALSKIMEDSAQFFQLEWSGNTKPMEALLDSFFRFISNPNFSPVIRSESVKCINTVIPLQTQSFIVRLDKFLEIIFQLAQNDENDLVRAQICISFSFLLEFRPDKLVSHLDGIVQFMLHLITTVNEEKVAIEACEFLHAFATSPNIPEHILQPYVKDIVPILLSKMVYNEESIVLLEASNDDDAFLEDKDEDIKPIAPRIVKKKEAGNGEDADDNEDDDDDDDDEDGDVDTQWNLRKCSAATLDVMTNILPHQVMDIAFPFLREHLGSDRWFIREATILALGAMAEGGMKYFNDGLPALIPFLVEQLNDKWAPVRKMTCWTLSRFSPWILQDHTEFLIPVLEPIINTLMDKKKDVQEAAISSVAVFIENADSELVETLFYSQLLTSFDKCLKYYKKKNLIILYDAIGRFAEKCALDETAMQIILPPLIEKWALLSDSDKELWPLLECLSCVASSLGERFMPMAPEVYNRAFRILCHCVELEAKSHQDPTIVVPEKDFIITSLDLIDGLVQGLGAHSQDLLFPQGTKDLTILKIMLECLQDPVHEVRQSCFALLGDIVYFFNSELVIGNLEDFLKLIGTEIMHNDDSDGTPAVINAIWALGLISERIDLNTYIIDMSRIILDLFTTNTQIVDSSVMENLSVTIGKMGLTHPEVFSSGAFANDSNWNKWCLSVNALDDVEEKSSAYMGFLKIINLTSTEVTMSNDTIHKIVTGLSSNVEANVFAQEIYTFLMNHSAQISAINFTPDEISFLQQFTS

[2] = target: T2, Kap104p, P38217; assay: ITC; conditions: for ddG / ratio to parent: chain shown with the change; for other: TΔS / Kd / other: ΔH / dG: chain shown with the change;; for other: TΔS: parent: 0.09 ± 0.7; for Kd: parent: 32 ± 16; for other: ΔH: parent: -10.0 ± 0.5; for dG: parent: -10.1 ± 0.3
T2 chain: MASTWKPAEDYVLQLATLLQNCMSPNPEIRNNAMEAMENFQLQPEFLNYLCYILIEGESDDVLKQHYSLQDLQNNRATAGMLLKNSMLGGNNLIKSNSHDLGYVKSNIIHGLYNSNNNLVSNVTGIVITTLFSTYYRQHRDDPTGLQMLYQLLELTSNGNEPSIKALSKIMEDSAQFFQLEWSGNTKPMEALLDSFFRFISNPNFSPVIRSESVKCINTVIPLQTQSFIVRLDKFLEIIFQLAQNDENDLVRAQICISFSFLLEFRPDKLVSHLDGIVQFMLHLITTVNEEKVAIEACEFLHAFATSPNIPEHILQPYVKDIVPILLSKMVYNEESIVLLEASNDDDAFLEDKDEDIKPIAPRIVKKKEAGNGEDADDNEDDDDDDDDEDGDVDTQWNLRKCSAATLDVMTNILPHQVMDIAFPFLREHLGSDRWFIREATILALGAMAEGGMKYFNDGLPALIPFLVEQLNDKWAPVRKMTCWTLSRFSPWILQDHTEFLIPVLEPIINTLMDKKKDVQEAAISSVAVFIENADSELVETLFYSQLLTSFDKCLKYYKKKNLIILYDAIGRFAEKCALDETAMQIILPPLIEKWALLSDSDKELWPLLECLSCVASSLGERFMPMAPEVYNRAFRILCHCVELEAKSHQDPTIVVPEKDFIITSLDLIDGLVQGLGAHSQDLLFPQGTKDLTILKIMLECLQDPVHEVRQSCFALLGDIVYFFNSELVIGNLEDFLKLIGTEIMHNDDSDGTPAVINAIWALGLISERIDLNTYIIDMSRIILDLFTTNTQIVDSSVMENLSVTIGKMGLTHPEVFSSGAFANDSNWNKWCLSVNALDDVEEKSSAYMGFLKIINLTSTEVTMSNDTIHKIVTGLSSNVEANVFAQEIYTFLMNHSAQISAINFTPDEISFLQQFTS

B1: MBP–Hrp1p NLS (domain or fragment, S. cerevisiae, UniProt Q99383 494-534, looked up)
chain: RDRNDRDRDYNHRSGGNHRRNGRGGRGGYNRRNNGYHPYNR
notes: Hrp1p NLS, residues 494-534; also called Hrp1p NLS wild type; source: E. coli BL21(DE3), purified (amylose resin, cation exchange)
[1]
  Kd: 32 nM

B2: MBP–Hrp1p NLS Y532M (domain or fragment, S. cerevisiae, UniProt Q99383 494-534, looked up)
chain: RDRNDRDRDYNHRSGGNHRRNGRGGRGGYNRRNNGYHPMNR
notes: Hrp1p NLS, residues 494-534; source: E. coli BL21(DE3), purified (amylose resin, cation exchange)
[1]
  Kd: 2000 nM

B3: MBP–Hrp1p NLS Y532F (domain or fragment, S. cerevisiae, UniProt Q99383 494-534, looked up)
chain: RDRNDRDRDYNHRSGGNHRRNGRGGRGGYNRRNNGYHPFNR
notes: as for B2
[1]
  fold decrease in affinity against wild type: 4 fold

B4: MBP–Hrp1p NLS 531PY532/AA (domain or fragment, S. cerevisiae, UniProt Q99383 494-534, looked up)
chain: {MBP}-RDRNDRDRDYNHRSGGNHRRNGRGGRGGYNRRNNGYHAANR
modifications: reading uncertain
notes: as for B2
[1]
  Kd: > 10000 nM

B5: MBP–Hrp1p NLS 506RSGG509/AAAA (domain or fragment, S. cerevisiae, UniProt Q99383 494-534, looked up)
chain: RDRNDRDRDYNHAAAANHRRNGRGGRGGYNRRNNGYHPYNR
notes: as for B2
[2]
  ddG: 0.02 kcal/mol
  ratio to parent: 1.3
  other: TΔS: -2.6 kcal/mol/K
  Kd: 42 nM
  other: ΔH: -12.6 kcal/mol
  dG: -10 kcal/mol
[1]
  binding result: binds

B6: MBP–Hrp1p NLS Y532H (domain or fragment, S. cerevisiae, UniProt Q99383 494-534, looked up)
chain: RDRNDRDRDYNHRSGGNHRRNGRGGRGGYNRRNNGYHPHNR
notes: as for B2
[1]
  Kd: 1000 nM

B7: MBP–Hrp1p NLS 512RRNG515/AAAA (domain or fragment, S. cerevisiae, UniProt Q99383 494-534, looked up)
chain: RDRNDRDRDYNHRSGGNHAAAARGGRGGYNRRNNGYHPYNR
notes: as for B2
[2]
  ddG: 0.2 kcal/mol
  ratio to parent: 1.5
  other: TΔS: 1.5 kcal/mol/K
  Kd: 48 nM
  other: ΔH: -8.3 kcal/mol
  dG: -9.8 kcal/mol
[1]
  binding result: binds

B8: MBP–Hrp1p NLS 516RGG518/AAA (domain or fragment, S. cerevisiae, UniProt Q99383 494-534, looked up)
chain: RDRNDRDRDYNHRSGGNHRRNGAAARGGYNRRNNGYHPYNR
notes: as for B2
[2]
  ddG: -0.3 kcal/mol
  ratio to parent: 0.7
  other: TΔS: 2 kcal/mol/K
  Kd: 24 nM
  other: ΔH: -8.3 kcal/mol
  dG: -10.3 kcal/mol
[1]
  binding result: binds

B9: MBP–Nab2p NLS (domain or fragment, S. cerevisiae, UniProt P32505 201-251, looked up)
chain: DNSQRFTQRGGGAVGKNRRGGRGGNRGGRNNNSTRFNPLAKALGMAGESNM
notes: Nab2p NLS, residues 201-251 (methods; the results say 201-250); also called Nab2p NLS wild type; source: E. coli BL21(DE3), purified (amylose resin, cation exchange)
[1]
  Kd: 37 nM

B10: MBP–Nab2p NLS L239E (domain or fragment, S. cerevisiae, UniProt P32505 201-251, looked up)
chain: DNSQRFTQRGGGAVGKNRRGGRGGNRGGRNNNSTRFNPEAKALGMAGESNM
notes: Nab2p NLS, residues 201-251; source: E. coli BL21(DE3), purified (amylose resin, cation exchange)
[1]
  fold decrease in affinity against wild type: 7 fold

B11: MBP–Nab2p NLS L239D (domain or fragment, S. cerevisiae, UniProt P32505 201-251, looked up)
chain: DNSQRFTQRGGGAVGKNRRGGRGGNRGGRNNNSTRFNPDAKALGMAGESNM
notes: as for B10
[1]
  fold decrease in affinity against wild type: 11 fold

B12: MBP–Nab2p NLS F236A (domain or fragment, S. cerevisiae, UniProt P32505 201-251, looked up)
chain: DNSQRFTQRGGGAVGKNRRGGRGGNRGGRNNNSTRANPLAKALGMAGESNM
notes: as for B10
[1]
  KD,mutant/KD,wild type: 8

B13: MBP–Nab2p NLS R229A (domain or fragment, S. cerevisiae, UniProt P32505 201-251, looked up)
chain: DNSQRFTQRGGGAVGKNRRGGRGGNRGGANNNSTRFNPLAKALGMAGESNM
notes: as for B10
[1]
  KD,mutant/KD,wild type: ~1

B14: MBP–Nab2p NLS K216A (domain or fragment, S. cerevisiae, UniProt P32505 201-251, looked up)
chain: DNSQRFTQRGGGAVGANRRGGRGGNRGGRNNNSTRFNPLAKALGMAGESNM
notes: as for B10
[1]
  binding result: binds

B15: MBP–Nab2p NLS R226A (domain or fragment, S. cerevisiae, UniProt P32505 201-251, looked up)
chain: DNSQRFTQRGGGAVGKNRRGGRGGNAGGRNNNSTRFNPLAKALGMAGESNM
notes: as for B10
[1]
  KD,mutant/KD,wild type: ~1

B16: MBP–Nab2p NLS L239Q (domain or fragment, S. cerevisiae, UniProt P32505 201-251, looked up)
chain: DNSQRFTQRGGGAVGKNRRGGRGGNRGGRNNNSTRFNPQAKALGMAGESNM
notes: Nab2p NLS, residues 201-251; also called L239 to Q; source: E. coli BL21(DE3), purified (amylose resin, cation exchange)
[1]
  binding result: binds

B17: MBP–Nab2p NLS R235K (domain or fragment, S. cerevisiae, UniProt P32505 201-251, looked up)
chain: DNSQRFTQRGGGAVGKNRRGGRGGNRGGRNNNSTKFNPLAKALGMAGESNM
notes: Nab2p NLS, residues 201-251; also called R235 to lysine; source: E. coli BL21(DE3), purified (amylose resin, cation exchange)
[1]
  KD,mutant/KD,wild type: 1

B18: MBP–Nab2p NLS R219A (domain or fragment, S. cerevisiae, UniProt P32505 201-251, looked up)
chain: DNSQRFTQRGGGAVGKNRAGGRGGNRGGRNNNSTRFNPLAKALGMAGESNM
notes: as for B10
[1]
  KD,mutant/KD,wild type: ~1

B19: MBP–Nab2p NLS L239F (domain or fragment, S. cerevisiae, UniProt P32505 201-251, looked up)
chain: DNSQRFTQRGGGAVGKNRRGGRGGNRGGRNNNSTRFNPFAKALGMAGESNM
notes: Nab2p NLS, residues 201-251; also called L239 to F; source: E. coli BL21(DE3), purified (amylose resin, cation exchange)
[1]
  binding result: binds

B20: MBP–Nab2p NLS 238PL239/PY (domain or fragment, S. cerevisiae, UniProt P32505 201-251, looked up)
chain: {MBP}-DNSQRFTQRGGGAVGKNRRGGRGGNRGGRNNNSTRFNPYAKALGMAGESNM
modifications: reading uncertain
notes: Nab2p NLS, residues 201-251; also called L239Y; source: E. coli BL21(DE3), purified (amylose resin, cation exchange)
[1]
  Kd: 13 nM
